# From patent US20200079833A1 (AstraZeneca / MedImmune, published 2020)
# Starred links: 1 amine or outer side, 2 acyl side, 3 side chain; linkers in the order of their positions; H or OH if unused. Non-standard residues stand in square brackets, D forms with d. Groups on a side chain read outwards from the residue. No end group written: not given here. *: point of attachment. γGlu = O=C(O)[C@H](CCC(=O)[*:2])N[*:1]; Palmitoyl = CCCCCCCCCCCCCCCC(=O)*; αMeF = C[C@](N)(Cc1ccccc1)C(=O)O; αMeK = C[C@](N)(CCCCN)C(=O)O; Aib = CC(C)(N)C(=O)O
# T1: glucose-dependent insulinotropic peptide (gastric inhibitory polypeptide) receptor (human, UniProt P48546 22-466)
# T1 sequence (looked up): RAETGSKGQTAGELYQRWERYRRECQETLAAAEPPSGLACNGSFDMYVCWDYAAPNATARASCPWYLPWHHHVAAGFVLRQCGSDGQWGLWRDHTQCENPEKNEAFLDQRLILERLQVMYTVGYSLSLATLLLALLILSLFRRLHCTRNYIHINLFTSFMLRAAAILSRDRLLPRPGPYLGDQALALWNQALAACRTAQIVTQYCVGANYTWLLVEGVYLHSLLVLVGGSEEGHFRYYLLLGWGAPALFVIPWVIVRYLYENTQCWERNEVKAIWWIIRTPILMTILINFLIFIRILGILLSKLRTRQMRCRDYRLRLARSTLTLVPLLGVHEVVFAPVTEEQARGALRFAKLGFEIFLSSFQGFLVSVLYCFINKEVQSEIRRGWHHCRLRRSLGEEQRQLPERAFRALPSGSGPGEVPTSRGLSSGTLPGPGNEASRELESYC
# Experiments:
# Test in all cases: cell-based or functional assay
# [1] = biological target: T1, glucose-dependent insulinotropic …
# GLP-1 receptor = GLP-1 receptor (human, UniProt P43220 24-463)
# glucagon receptor = glucagon receptor (human, UniProt P47871 26-477)
# glucagon receptor, sequence (P47871 26-477): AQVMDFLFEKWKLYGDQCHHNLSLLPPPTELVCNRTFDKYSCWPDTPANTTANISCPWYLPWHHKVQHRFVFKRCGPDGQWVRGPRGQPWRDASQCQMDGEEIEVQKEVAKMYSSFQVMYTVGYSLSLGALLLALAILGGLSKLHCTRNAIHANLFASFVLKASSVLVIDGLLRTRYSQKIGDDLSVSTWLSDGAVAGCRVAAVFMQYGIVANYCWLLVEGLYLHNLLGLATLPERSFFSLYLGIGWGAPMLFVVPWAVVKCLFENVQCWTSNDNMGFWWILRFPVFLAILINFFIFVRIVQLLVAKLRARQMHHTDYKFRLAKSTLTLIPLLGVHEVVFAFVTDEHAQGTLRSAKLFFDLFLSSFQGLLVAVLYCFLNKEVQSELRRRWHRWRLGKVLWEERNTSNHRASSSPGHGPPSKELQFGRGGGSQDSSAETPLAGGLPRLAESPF
Binder,"Primary assay EC50 (cAMP), n1 [1]","Primary assay EC50 (cAMP), n2 [1]","Primary assay EC50 (cAMP), Mean pM GLP-1R (GLP-1 receptor)","Primary assay EC50 (cAMP), n1 (GLP-1 receptor)","Primary assay EC50 (cAMP), n2 (GLP-1 receptor)","Primary assay EC50 (cAMP), n1 (glucagon receptor)","Primary assay EC50 (cAMP), n2 (glucagon receptor)"
H[Aib]EGS[αMeF]TSDVSS[αMeF]LEGEAA[αMeK]E[αMeF]VA[αMeF]VV[αMeK]GG-NH2 (N-terminus assumed; SMILES CC(C)C[C@H](NC(=O)[C@](C)(Cc1ccccc1)NC(=O)[C@H](CO)NC(=O)[C@H](CO)NC(=O)[C@@H](NC(=O)[C@H](CC(=O)O)NC(=O)[C@H](CO)NC(=O)[C@@H](NC(=O)[C@](C)(Cc1ccccc1)NC(=O)[C@H](CO)NC(=O)CNC(=O)[C@H](CCC(=O)O)NC(=O)C(C)(C)NC(=O)[C@@H](N)Cc1c[nH]cn1)[C@@H](C)O)C(C)C)C(=O)N[C@@H](CCC(=O)O)C(=O)NCC(=O)N[C@@H](CCC(=O)O)C(=O)N[C@@H](C)C(=O)N[C@@H](C)C(=O)N[C@@](C)(CCCCN)C(=O)N[C@@H](CCC(=O)O)C(=O)N[C@@](C)(Cc1ccccc1)C(=O)N[C@H](C(=O)N[C@@H](C)C(=O)N[C@@](C)(Cc1ccccc1)C(=O)N[C@H](C(=O)N[C@H](C(=O)N[C@@](C)(CCCCN)C(=O)NCC(=O)NCC(N)=O)C(C)C)C(C)C)C(C)C) [SEQ ID NO 11],100 nM,100 nM,32 pM,0.032 nM,0.032 nM,100 nM,100 nM
H[Aib]EGS[αMeF]SSEVSS[αMeF]VEGEAA[αMeK]E[αMeF]VA[αMeF]VV[αMeK]GG-NH2 (N-terminus assumed; SMILES CC(C)[C@H](NC(=O)[C@H](CCC(=O)O)NC(=O)[C@H](CO)NC(=O)[C@H](CO)NC(=O)[C@](C)(Cc1ccccc1)NC(=O)[C@H](CO)NC(=O)CNC(=O)[C@H](CCC(=O)O)NC(=O)C(C)(C)NC(=O)[C@@H](N)Cc1c[nH]cn1)C(=O)N[C@@H](CO)C(=O)N[C@@H](CO)C(=O)N[C@@](C)(Cc1ccccc1)C(=O)N[C@H](C(=O)N[C@@H](CCC(=O)O)C(=O)NCC(=O)N[C@@H](CCC(=O)O)C(=O)N[C@@H](C)C(=O)N[C@@H](C)C(=O)N[C@@](C)(CCCCN)C(=O)N[C@@H](CCC(=O)O)C(=O)N[C@@](C)(Cc1ccccc1)C(=O)N[C@H](C(=O)N[C@@H](C)C(=O)N[C@@](C)(Cc1ccccc1)C(=O)N[C@H](C(=O)N[C@H](C(=O)N[C@@](C)(CCCCN)C(=O)NCC(=O)NCC(N)=O)C(C)C)C(C)C)C(C)C)C(C)C) [SEQ ID NO 12],45 nM,45 nM,2100 pM,2.1 nM,2.1 nM,10 nM,13 nM

# More lines, now with the values ahead:
"Primary assay EC50 (cAMP), n1 [1]","Primary assay EC50 (cAMP), n2 [1]","Primary assay EC50 (cAMP), Mean pM GLP-1R (GLP-1 receptor)","Primary assay EC50 (cAMP), n1 (GLP-1 receptor)","Primary assay EC50 (cAMP), n2 (GLP-1 receptor)","Primary assay EC50 (cAMP), n1 (glucagon receptor)","Primary assay EC50 (cAMP), n2 (glucagon receptor)",Binder
0.16 nM,0.079 nM,119000 pM,120 nM,120 nM,120 nM,120 nM,Y[Aib]EGS[αMeF]ISD[αMeF]SIAMDKIHQQD[αMeF]VN[αMeF]LLAQK-NH2 (N-terminus assumed; SMILES CC[C@H](C)[C@H](NC(=O)[C@H](CO)NC(=O)[C@](C)(Cc1ccccc1)NC(=O)[C@H](CC(=O)O)NC(=O)[C@H](CO)NC(=O)[C@@H](NC(=O)[C@](C)(Cc1ccccc1)NC(=O)[C@H](CO)NC(=O)CNC(=O)[C@H](CCC(=O)O)NC(=O)C(C)(C)NC(=O)[C@@H](N)Cc1ccc(O)cc1)[C@@H](C)CC)C(=O)N[C@@H](C)C(=O)N[C@@H](CCSC)C(=O)N[C@@H](CC(=O)O)C(=O)N[C@@H](CCCCN)C(=O)N[C@H](C(=O)N[C@@H](Cc1c[nH]cn1)C(=O)N[C@@H](CCC(N)=O)C(=O)N[C@@H](CCC(N)=O)C(=O)N[C@@H](CC(=O)O)C(=O)N[C@@](C)(Cc1ccccc1)C(=O)N[C@H](C(=O)N[C@@H](CC(N)=O)C(=O)N[C@@](C)(Cc1ccccc1)C(=O)N[C@@H](CC(C)C)C(=O)N[C@@H](CC(C)C)C(=O)N[C@@H](C)C(=O)N[C@@H](CCC(N)=O)C(=O)N[C@@H](CCCCN)C(N)=O)C(C)C)[C@@H](C)CC) [SEQ ID NO 15]
0.69 nM,0.63 nM,16 pM,0.022 nM,0.0096 nM,7.6 nM,4.1 nM,H[Aib]QGS[αMeF]TSDK([γGlu-Palmitoyl])SE[αMeF]LDSERARD[αMeF]VA[αMeF]LEAGG-NH2 (N-terminus assumed; SMILES CCCCCCCCCCCCCCCC(=O)N[C@@H](CCC(=O)NCCCC[C@H](NC(=O)[C@H](CC(=O)O)NC(=O)[C@H](CO)NC(=O)[C@@H](NC(=O)[C@](C)(Cc1ccccc1)NC(=O)[C@H](CO)NC(=O)CNC(=O)[C@H](CCC(N)=O)NC(=O)C(C)(C)NC(=O)[C@@H](N)Cc1c[nH]cn1)[C@@H](C)O)C(=O)N[C@@H](CO)C(=O)N[C@@H](CCC(=O)O)C(=O)N[C@@](C)(Cc1ccccc1)C(=O)N[C@@H](CC(C)C)C(=O)N[C@@H](CC(=O)O)C(=O)N[C@@H](CO)C(=O)N[C@@H](CCC(=O)O)C(=O)N[C@@H](CCCNC(=N)N)C(=O)N[C@@H](C)C(=O)N[C@@H](CCCNC(=N)N)C(=O)N[C@@H](CC(=O)O)C(=O)N[C@@](C)(Cc1ccccc1)C(=O)N[C@H](C(=O)N[C@@H](C)C(=O)N[C@@](C)(Cc1ccccc1)C(=O)N[C@@H](CC(C)C)C(=O)N[C@@H](CCC(=O)O)C(=O)N[C@@H](C)C(=O)NCC(=O)NCC(N)=O)C(C)C)C(=O)O) [SEQ ID NO 13]
15 nM,19 nM,2440 pM,3.1 nM,1.8 nM,3 nM,1.1 nM,H[Aib]QGS[αMeF]TSD[αMeF]SK[αMeF]LDSRRAQD[αMeF]VQ[αMeF]LMNT-NH2 (N-terminus assumed; SMILES CSCC[C@H](NC(=O)[C@H](CC(C)C)NC(=O)[C@](C)(Cc1ccccc1)NC(=O)[C@H](CCC(N)=O)NC(=O)[C@@H](NC(=O)[C@](C)(Cc1ccccc1)NC(=O)[C@H](CC(=O)O)NC(=O)[C@H](CCC(N)=O)NC(=O)[C@H](C)NC(=O)[C@H](CCCNC(=N)N)NC(=O)[C@H](CCCNC(=N)N)NC(=O)[C@H](CO)NC(=O)[C@H](CC(=O)O)NC(=O)[C@H](CC(C)C)NC(=O)[C@](C)(Cc1ccccc1)NC(=O)[C@H](CCCCN)NC(=O)[C@H](CO)NC(=O)[C@](C)(Cc1ccccc1)NC(=O)[C@H](CC(=O)O)NC(=O)[C@H](CO)NC(=O)[C@@H](NC(=O)[C@](C)(Cc1ccccc1)NC(=O)[C@H](CO)NC(=O)CNC(=O)[C@H](CCC(N)=O)NC(=O)C(C)(C)NC(=O)[C@@H](N)Cc1c[nH]cn1)[C@@H](C)O)C(C)C)C(=O)N[C@@H](CC(N)=O)C(=O)N[C@H](C(N)=O)[C@@H](C)O) [SEQ ID NO 14]
